Laboratory results from patent US6043072A, “Nucleic acids encoding Taxus geranylgeranyl diphosphate synthase, and methods of use” (Washington State University Research Foundation, priority 1998, dated 2000).

Tests used:
E. coli = assay: Expression under a strong constitutive promoter in E. coli (vector pYPGE15); format: cell-based
Method: (§1) The toxicity of the constitutively expressed, recombinant GGPP synthase gene in yeast and in E. coli parallels the in vitro activity of the enzyme expressed in the truncation series. […] This toxicity is not observed when the corresponding transformed yeast are grown on glucose or glycerol (uninduced condition), but only when the gene is actively expressed by growth under inducing conditions with galactose as the carbon source. The overexpression of this gene to produce a functional GGPP synthase probably interferes with metabolism by depleting intracellular pools of FPP, via diversion to GGPP, and thus limiting sterol biosynthesis. […] The vector used in these E. coli transformation experiments was pYPGE15, the plasmid derived from λPG15.

[1] = Prenyltransferase assay of extracts of yeast expressing the GGPP synthase constructs, with product analysis by radio-TLC; format: biochemical, Taxus canadensis
Method: The standard assay for prenyltransferase activities was performed with 21 mg protein in a total volume of 100 ml of the extraction/assay buffer disclosed in Example 3. […] The reaction was quenched by the addition of 300 mil of methanol:conc. HCl (4:1, v/v), and the allylic diphosphate products were solvolyzed (50, 51) upon further incubation at 42° C. for 20 min. The resulting solvolysis products were extracted twice with 1 ml pentane, and were either analyzed by liquid scintillation counting (in toluene:ethanol (7:3, v/v) containing 0.4% Omnifluor (DuPont NEN); ^14 C counting efficiency=96.0%) or concentrated on ice under a gentle stream of Ar to […] for further analysis.
For radio-TLC analysis, samples were mixed with 10 mg each of geranylgeraniol (all trans), geranyllinalool (mixed geometric isomers), farnesol and geraniol and spotted on Whatman MKC 18F reversed phase plates that were developed with acetonitrile:acetone:water (15:4:1, v/v/v) and visualized with I2 vapor. Bands corresponding to the standards were scraped into scintillation vials for counting. For radio-GC analysis, the above pentane extract was diluted with 200 ml of an 8% ethereal solution of the internal standards before concentration on ice. Product identity was confirmed by radio-GC (Satterwhite, D. M. and Croteau, R. (1988) J. Chromatogr., 452:61-73) coincidence with the authentic standard on a 12 ft x 0.125 in. polydimethylsiloxane column (15% SE-30 on 80/100-mesh Chromasorb WHP; (Alltech, Inc., Nicholasville, Ky.), with He as carrier and temperature programming from 150° C. (1 min hold) to 240° C. (20 min hold) at 8° C./min.

yeast strain (INVSc1) = assay: Growth/toxicity of constructs in yeast under galactose induction; format: cell-based, S. cerevisiae; conditions: for growth of INVSc1 transformants on SLI medium: 30° C., 3 d, galactose (induced); for toxicity of the expressed recombinant GGPP synthase gene to host cells: inducing conditions, galactose as carbon source
Method: To test the expression of GGPP synthase on galactose as carbon source, each construct was transformed into a yeast strain (INVSc1) that metabolizes this sugar efficiently.
as §1

[2] = system: ANY119, an S. cerevisiae mutant; assay: Complementation assay in yeast bet2-1 mutant; format: cell-based; conditions: 37° C.; SGI (3 d) and N3 (5 d)
Method: The pYeDP60 constructs were transformed into the S. cerevisiae mutant ANY119 using the lithium acetate procedure (Treco, D. (1989) in Current Protocols in Molecular Biology (Ausubel, F. M., Brent, R., Kingston, R. E., Moore, D. D., Seidman, J. G., Smith, J. A. and White, T. J., Eds.), pp. 13.7.1-13.7.2, John Wiley and Sons, New York), and the transformed yeast were then plated on a synthetic medium containing glucose as the sole carbon source (but lacking uracil) and grown for 4 d at 25° C. Isolated colonies, corresponding to each construct, were then replica streaked onto SGI, N3 and SLI media and grown for 3, 5 or 7 d, respectively, at 25° C or 37° C.
SGI and SLI synthetic media contain, respectively, 20 g/liter glucose (G) or 20 g/liter galactose (L) in 1 g/liter bactocasamino acids (Difco), 6.7 g/liter yeast nitrogen base without amino acid (Difco), and 40 mg/liter DL-tryptophan.
The three pYeDP60/T. canadensis GGPP synthase constructs were introduced into and expressed in ANY119, an S. cerevisiae mutant that is defective for the β-subunit of type II geranylgeranyltransferase. […]

Molecule	growth of E. coli expressing the clone (E. coli)	activity relative to the truncated form expressed from Tr^295 ([1]; compared on a protein basis, yeast extracts) [%]	growth of INVSc1 transformants on SLI medium (yeast strain (INVSc1))	toxicity of the expressed recombinant GGPP synthase gene to host cells (yeast strain (INVSc1))	growth at restrictive temperature (rescue of bet2-1 mutant) [2]	total radioactivity of solvolysis products coinciding with geranylgeraniol and geranyllinalool standards ([1]; reversed phase TLC, [4-^14 C]IPP plus FPP as substrates) [%]	prenyltransferase activity of enzyme preparation ([1]; yeast extracts, [4-^14 C]IPP and FPP)
full-length: full-length T. canadensis GGPP synthase preprotein (SEQ ID NO:2) encoded by SEQ ID NO:1 (protein) MAYTAMAAGTQSLQLRTVASYQECNSMRSCFKLTPFKSFHGVNFNVPSLGAANCEIMGHLKLGSLPYKQCSVSSKSTKTMAQLVDLAETEKAEGKDIEFDFNEYMKSKAVAVDAALDKAIPLEYPEKIHESMRYSLLAGGKRVRPALCIAACELVGGSQDLAMPTACAMEMIHTMSLIHDDLPCMDNDDFRRGKPTNHKVFGEDTAVLAGDALLSFAFEHIAVATSKTVPSDRTLRVISELGKTIGSQGLVGGQVVDITSEGDANVDLKTLEWIHIHKTAVLLECSVVSGGILGGATEDEIARIRRYARCVGLLFQVVDDILDVTKSSEELGKTAGKDLLTDKATYPKLMGLEKAKEFAAELATRAKEELSSFDQIKAAPLLGLADYIAFRQN	the cells will not grow	12	scanty growth	noticeable reduction in growth	showed growth	–	–
Tr^295: 5'-truncated T. canadensis GGPP synthase of SEQ ID NO:2 beginning at nucleotide 295 (F^99), lacking the transit peptide (protein) FDFNEYMKSKAVAVDAALDKAIPLEYPEKIHESMRYSLLAGGKRVRPALCIAACELVGGSQDLAMPTACAMEMIHTMSLIHDDLPCMDNDDFRRGKPTNHKVFGEDTAVLAGDALLSFAFEHIAVATSKTVPSDRTLRVISELGKTIGSQGLVGGQVVDITSEGDANVDLKTLEWIHIHKTAVLLECSVVSGGILGGATEDEIARIRRYARCVGLLFQVVDDILDVTKSSEELGKTAGKDLLTDKATYPKLMGLEKAKEFAAELATRAKEELSSFDQIKAAPLLGLADYIAFRQN	the cells will not grow	–	did not grow at all	extremely toxic	showed growth	97	highly active
